The record followed here is patent US20110091994A1, “Methods for Screening Compounds for Treating and/or Preventing an Hepatitis C Virus Infection” (priority 2008, published 2011).

Read-outs that look alike come from different tables or passages of the source.

Test [1] has as its system HCV ORFs (Gal4-DB fusions). In kind it is binding, HCV genotype 1b, isolate con1. The conditions noted are these: human protein listed by gene symbol; the value names the HCV protein it interacts with.
For test [2], the target named is T1, HCV ORFs (Gal4-DB fusions) (Hepatitis C virus genotype 1b, UniProt Q9WMX2).
T1 construct: expressed in transfected cells; host or cells: Saccharomyces cerevisiae MAV203 (IMAP1) / AH109 (IMAP2)
In kind it is binding, HCV genotype 1b, isolate con1. The following applies: human protein as prey.

The next test has as its target T2, HCV proteins (Hepatitis C virus genotype 1b, UniProt Q9WMX2).
T2 construct: expressed in transfected cells
Briefly: Validation by Y2H pairwise matrices.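 Also: yeast two-hybrid pairwise tests of interactions first found in Y2H screens of HCV bait proteins against human cDNA libraries.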 In kind it is binding.

The mark [3] stands for this setting: validation of interaction with HCV protein NS3.
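For IMAP Y2H IMAP1 (number of IST) in this document: yeast two-hybrid screens using HCV genotype 1b proteins fused to Gal4-DB as baits against prey cDNA libraries from human spleen and foetal brain, IMAP1 via transformation and IMAP2 via mating.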
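For Interaction with viral protein in this document: yeast two-hybrid screens using HCV genotype 1b proteins fused to Gal4-DB as baits against prey cDNA libraries from human spleen and foetal brain, IMAP1 via transformation and IMAP2 via mating.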

B1: ZZZ3 (protein, UniProt Q8IYH5 1-903, looked up)
ZZ-type zinc …: MAASRSTRVTRSTVGLNGLDESFCGRTLRNRSIAHPEEISSNSQVRSRSPKKRPEPVPIQKGNNNGRTTDLKQQSTRESWVSPRKRGLSSSEKDNIERQAIENCERRQTEPVSPVLKRIKRCLRSEAPNSSEEDSPIKSDKESVEQRSTVVDNDADFQGTKRACRCLILDDCEKREIKKVNVSEEGPLNSAVVEEITGYLAVNGVDDSDSAVINCDDCQPDGNTKQNSIGSYVLQEKSVAENGDTDTQTSMFLDSRKEDSYIDHKVPCTDSQVQVKLEDHKIVTACLPVEHVNQLTTEPATGPFSETQSSLRDSEEEVDVVGDSSASKEQCKENTNNELDTSLESMPASGEPEPSPVLDCVSAQMMSLSEPQEHRYTLRTSPRRAAPTRGSPTKNSSPYRENGQFEENNLSPNETNATVSDNVSQSPTNPGEISQNEKGICCDSQNNGSEGVSKPPSEARLNIGHLPSAKESASQHITEEEDDDPDVYYFESDHVALKHNKDYQRLLQTIAVLEAQRSQAVQDLESLGRHQREALKNPIGFVEKLQKKADIGLPYPQRVVQLPEIVWDQYTHSLGNFEREFKNRKRHTRRVKLVFDKVGLPARPKSPLDPKKDGESLSYSMLPLSDGPEGSSSRPQMIRGRLCDDTKPETFNQLWTVEEQKKLEQLLIKYPPEEVESRRWQKIADELGNRTAKQVASRVQKYFIKLTKAGIPVPGRTPNLYIYSKKSSTSRRQHPLNKHLFKPSTFMTSHEPPVYMDEDDDRSCFHSHMNTAVEDASDDESIPIMYRNLPEYKELLQFKKLKKQKLQQMQAESGFVQHVGFKCDNCGIEPIQGVRWHCQDCPPEMSLDFCDSCSDCLHETDIHKEDHQLEPIYRSETFLDRDYCVSQGTSYNYLDPNYFPANR
Take B1: the “Interaction with viral protein” value in test [1] is reported as “NS3”. Besides, the “IMAP Y2H IMAP1 (number of IST)” value in test [2] (HCV protein NS3 as bait) is 1. Also, the Y2H matrices result in the test with HCV proteins (setting [3]) is listed as “+”.

B2: ELAC2 (protein, UniProt Q9BQ52 17-826, looked up)
Zinc phosphodiesterase ELAC …: SQGRTISQAPARRERPRKDPLRHLRTREKRGPSGCSGGPNTVYLQVVAAGSRDSGAALYVFSEFNRYLFNCGEGVQRLMQEHKLKVARLDNIFLTRMHWSNVGGLSGMILTLKETGLPKCVLSGPPQLEKYLEAIKIFSGPLKGIELAVRPHSAPEYEDETMTVYQIPIHSEQRRGKHQPWQSPERPLSRLSPERSSDSESNENEPHLPHGVSQRRGVRDSSLVVAFICKLHLKRGNFLVLKAKEMGLPVGTAAIAPIIAAVKDGKSITHEGREILAEELCTPPDPGAAFVVVECPDESFIQPICENATFQRYQGKADAPVALVVHMAPASVLVDSRYQQWMERFGPDTQHLVLNENCASVHNLRSHKIQTQLNLIHPDIFPLLTSFRCKKEGPTLSVPMVQGECLLKYQLRPRREWQRDAIITCNPEEFIVEALQLPNFQQSVQEYRRSAQDGPAPAEKRSQYPEIIFLGTGSAIPMKIRNVSATLVNISPDTSLLLDCGEGTFGQLCRHYGDQVDRVLGTLAAVFVSHLHADHHTGLPSILLQRERALASLGKPLHPLLVVAPNQLKAWLQQYHNQCQEVLHHISMIPAKCLQEGAEISSPAVERLISSLLRTCDLEEFQTCLVRHCKHAFGCALVHTSGWKVVYSGDTMPCEALVRMGKDATLLIHEATLEDGLEEEAVEKTHSTTSQAISVGMRMNAEFIMLNHFSQRYAKVPLFSPNFSEKVGVAFDHMKVCFGDFPTMPKLIPPLKALFAGDIEEMEERREKRELRQVRAALLSRELAGGLEDGEPQQKRAHTEEPQAKKVRAQ
Turning to B2, the “Interaction with viral protein” value in test [1] is reported as “NS4A”. In test [2] (HCV protein NS4A as bait), the “IMAP Y2H IMAP1 (number of IST)” value is reported as 1. Moreover, the Y2H matrices result with HCV proteins (validation of interaction with HCV protein NS4A) is “+”.

B3: ZHX3 (protein, UniProt Q9H4I2 1-956, looked up)
Zinc fingers and homeoboxes …: MASKRKSTTPCMIPVKTVVLQDASMEAQPAETLPEGPQQDLPPEASAASSEAAQNPSSTDGSTLANGHRSTLDGYLYSCKYCDFRSHDMTQFVGHMNSEHTDFNKDPTFVCSGCSFLAKTPEGLSLHNATCHSGEASFVWNVAKPDNHVVVEQSIPESTSTPDLAGEPSAEGADGQAEIIITKTPIMKIMKGKAEAKKIHTLKENVPSQPVGEALPKLSTGEMEVREGDHSFINGAVPVSQASASSAKNPHAANGPLIGTVPVLPAGIAQFLSLQQQPPVHAQHHVHQPLPTAKALPKVMIPLSSIPTYNAAMDSNSFLKNSFHKFPYPTKAELCYLTVVTKYPEEQLKIWFTAQRLKQGISWSPEEIEDARKKMFNTVIQSVPQPTITVLNTPLVASAGNVQHLIQAALPGHVVGQPEGTGGGLLVTQPLMANGLQATSSPLPLTVTSVPKQPGVAPINTVCSNTTSAVKVVNAAQSLLTACPSITSQAFLDASIYKNKKSHEQLSALKGSFCRNQFPGQSEVEHLTKVTGLSTREVRKWFSDRRYHCRNLKGSRAMIPGDHSSIIIDSVPEVSFSPSSKVPEVTCIPTTATLATHPSAKRQSWHQTPDFTPTKYKERAPEQLRALESSFAQNPLPLDEELDRLRSETKMTRREIDSWFSERRKKVNAEETKKAEENASQEEEEAAEDEGGEEDLASELRVSGENGSLEMPSSHILAERKVSPIKINLKNLRVTEANGRNEIPGLGACDPEDDESNKLAEQLPGKVSCKKTAQQRHLLRQLFVQTQWPSNQDYDSIMAQTGLPRPEVVRWFGDSRYALKNGQLKWYEDYKRGNFPPGLLVIAPGNRELLQDYYMTHKMLYEEDLQNLCDKTQMSSQQVKQWFAEKMGEETRAVADTGSEDQGPGTGELTAVHKGMGDTYSEVSENSESWEPRVPEASSEPFDTSSPQAGRQLETD
Regarding B3, in test [1], the “Interaction with viral protein” value is on record as “NS3”. Moreover, in test [2] (HCV protein NS3 as bait), the “IMAP Y2H IMAP1 (number of IST)” value came to 4. The Y2H matrices entry with HCV proteins (setting [3]) is reported as “+”.

B4: POU3F2 (protein, UniProt P20265 1-443, looked up)
POU domain, class 3, …: MATAASNHYSLLTSSASIVHAEPPGGMQQGAGGYREAQSLVQGDYGALQSNGHPLSHAHQWITALSHGGGGGGGGGGGGGGGGGGGGGDGSPWSTSPLGQPDIKPSVVVQQGGRGDELHGPGALQQQHQQQQQQQQQQQQQQQQQQQQQRPPHLVHHAANHHPGPGAWRSAAAAAHLPPSMGASNGGLLYSQPSFTVNGMLGAGGQPAGLHHHGLRDAHDEPHHADHHPHPHSHPHQQPPPPPPPQGPPGHPGAHHDPHSDEDTPTSDDLEQFAKQFKQRRIKLGFTQADVGLALGTLYGNVFSQTTICRFEALQLSFKNMCKLKPLLNKWLEEADSSSGSPTSIDKIAAQGRKRKKRTSIEVSVKGALESHFLKCPKPSAQEITSLADSLQLEKEVVRVWFCNRRQKEKRMTPPGGTLPGAEDVYGGSRDTPPHHGVQTPVQ
Consider B4, for which the “Interaction with viral protein” value in test [1] was “NS2”. Further, the “IMAP Y2H IMAP1 (number of IST)” value in test [2] (HCV protein NS2 as bait) is given as 1. The Y2H matrices result with HCV proteins (validation of interaction with HCV protein NS2) was “+”.

B5: ZNF410 (protein, UniProt Q86VK4 1-478, looked up)
Zinc finger protein 410: MLSDELESKPELLVQFVQNTSIPLGQGLVESEAKDITCLSLLPVTEASECSRLMLPDDTTNHSNSSKEVPSSAVLRSLRVNVGPDGEETRAQTVQKSPEFLSTSESSSLLQDLQPSDSTSFILLNLTRAGLGSSAEHLVFVQDEAEDSGNDFLSSESTDSSIPWFLRVQELAHDSLIAATRAQLAKNAKTSSNGENVHLGSGDGQSKDSGPLPQVEKKLKCTVEGCDRTFVWPAHFKYHLKTHRNDRSFICPAEGCGKSFYVLQRLKVHMRTHNGEKPFMCHESGCGKQFTTAGNLKNHRRIHTGEKPFLCEAQGCGRSFAEYSSLRKHLVVHSGEKPHQCQVCGKTFSQSGSRNVHMRKHHLQLGAAGSQEQEQTAEPLMGSSLLEEASVPSKNLVSMNSQPSLGGESLNLPNTNSILGVDDEVLAEGSPRSLSSVPDVTHHLVTMQSGRQSYEVSVLTAVNPQELLNQGDLTERRT
With B5, in test [1], the “Interaction with viral protein” value was “NS3”. For the same molecule, in test [2] (HCV protein NS3 as bait), the “IMAP Y2H IMAP1 (number of IST)” value is given as 1. Moreover, the Y2H matrices result in the test with HCV proteins (setting [3]) is on record as “+”.

B6: ZNF281 (protein, UniProt Q9Y2X9 1-895, looked up)
Zinc finger protein 281: MKIGSGFLSGGGGTGSSGGSGSGGGGSGGGGGGGSSGRRAEMEPTFPQGMVMFNHRLPPVTSFTRPAGSAAPPPQCVLSSSTSAAPAAEPPPPPAPDMTFKKEPAASAAAFPSQRTSWGFLQSLVSIKQEKPADPEEQQSHHHHHHHHYGGLFAGAEERSPGLGGGEGGSHGVIQDLSILHQHVQQQPAQHHRDVLLSSSSRTDDHHGTEEPKQDTNVKKAKRPKPESQGIKAKRKPSASSKPSLVGDGEGAILSPSQKPHICDHCSAAFRSSYHLRRHVLIHTGERPFQCSQCSMGFIQKYLLQRHEKIHSREKPFGCDQCSMKFIQKYHMERHKRTHSGEKPYKCDTCQQYFSRTDRLLKHRRTCGEVIVKGATSAEPGSSNHTNMGNLAVLSQGNTSSSRRKTKSKSIAIENKEQKTGKTNESQISNNINMQSYSVEMPTVSSSGGIIGTGIDELQKRVPKLIFKKGSRKNTDKNYLNFVSPLPDIVGQKSLSGKPSGSLGIVSNNSVETIGLLQSTSGKQGQISSNYDDAMQFSKKRRYLPTASSNSAFSINVGHMVSQQSVIQSAGVSVLDNEAPLSLIDSSALNAEIKSCHDKSGIPDEVLQSILDQYSNKSESQKEDPFNIAEPRVDLHTSGEHSELVQEENLSPGTQTPSNDKASMLQEYSKYLQQAFEKSTNASFTLGHGFQFVSLSSPLHNHTLFPEKQIYTTSPLECGFGQSVTSVLPSSLPKPPFGMLFGSQPGLYLSALDATHQQLTPSQELDDLIDSQKNLETSSAFQSSSQKLTSQKEQKNLESSTGFQIPSQELASQIDPQKDIEPRTTYQIENFAQAFGSQFKSGSRVPMTFITNSNGEVDHRVRTSVSDFSGYTNMMSDVSEPCSTRVKTPTSQSYR
In the case of B6, the “Interaction with viral protein” value in test [1] is listed as “NS3”. For the same molecule, the “IMAP Y2H IMAP1 (number of IST)” value in test [2] (HCV protein NS3 as bait) is given as 1. Besides, the Y2H matrices result with HCV proteins (setting [3]) is given as “+”.
